Laboratory results as given in patent US12281155.

What was measured:
Conditions in all cases: remark: other sources report otherwise
[1] = biological target: T1, recombinant SARS-CoV-2 Spike RBD domain, BA.2 variant (SARS-CoV-2); assay: ELISA on coated RBD
[2] = biological target: T2, recombinant SARS-CoV-2 Spike RBD domain, BA.4/5 variant (SARS-CoV-2); assay: ELISA on coated RBD
[3] = biological target: T3, recombinant SARS-CoV-2 Spike RBD domain, Delta variant (SARS-CoV-2); assay: ELISA on coated RBD
[4] = biological target: T1, recombinant SARS-CoV-2 Spike RBD …; assay: competition ELISA, blocking of RBD binding to ACE2 ectodomain
[5] = biological target: T2, recombinant SARS-CoV-2 Spike RBD …; assay: as above
[6] = biological target: T3, recombinant SARS-CoV-2 Spike RBD …; assay: as above

B1: SPK002 antibody (parental version Cv2.3194 described in WO 2022/228827) (antibody, V domains shown)
VH: EVQLVESGGGLIQPGGSLRLSCAASGITVTSNYMSWVRQAPGKGLEWVSVIYPGGSTFYADSVKGRFTISRDNSKNTLYLQMNSLRAEDTAVYYCARDLVVYGMDVWGQGTTVTVS
VL: EIVLTQSPGTLSLSPGERATLSCRASQSVSSSYLAWYQQKPGQAPRLLIYGASSRATGIPGRFSGSGSGTDFTLTISRLEPEDFAIYYCQQGVTFGGGTKVEIK
Binding AUC [1]: 33 | Binding AUC [2]: 33 | Binding AUC [3]: 34 | Blocking % [4]: 94% | Blocking % [5]: 92% | Blocking % [6]: 93%
